Data from IntAct's records for PubMed 24530283.

Target: fos_mouse Fos (UniProt P01101)
Sequence (P01101 whole entry): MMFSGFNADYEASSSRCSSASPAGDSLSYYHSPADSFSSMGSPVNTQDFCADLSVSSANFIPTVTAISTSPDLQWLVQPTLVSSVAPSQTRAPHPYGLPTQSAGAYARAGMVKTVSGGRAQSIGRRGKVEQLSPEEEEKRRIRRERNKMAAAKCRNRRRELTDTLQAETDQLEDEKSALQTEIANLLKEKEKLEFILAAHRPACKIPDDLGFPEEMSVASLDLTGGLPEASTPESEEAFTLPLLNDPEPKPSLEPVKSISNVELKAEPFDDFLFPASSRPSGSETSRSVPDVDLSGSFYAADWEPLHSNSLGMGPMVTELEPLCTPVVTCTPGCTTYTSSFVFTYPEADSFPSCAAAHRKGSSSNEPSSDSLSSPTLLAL

Transcription factor MafB (Mus musculus), P54841 E269R, sequence (P54841 whole entry E269R): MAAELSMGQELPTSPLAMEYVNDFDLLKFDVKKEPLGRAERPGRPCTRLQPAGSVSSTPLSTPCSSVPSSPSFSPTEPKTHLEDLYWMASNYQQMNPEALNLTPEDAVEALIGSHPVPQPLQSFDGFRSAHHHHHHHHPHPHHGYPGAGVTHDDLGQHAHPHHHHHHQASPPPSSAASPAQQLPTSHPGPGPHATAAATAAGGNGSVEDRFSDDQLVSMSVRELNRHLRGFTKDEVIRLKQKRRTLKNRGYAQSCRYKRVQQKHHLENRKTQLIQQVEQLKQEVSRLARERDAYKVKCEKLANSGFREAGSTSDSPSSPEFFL
Transcription factor MafB (Mus musculus), P54841 V277N, sequence (P54841 whole entry V277N): as the sequence (P54841 whole entry E269R) above, with R269E, V277N counted along it

Row | Substance | effect of a mutation on the interaction
1 | Transcription factor MafB (Mus musculus), P54841 E269R | increasing interaction strength
2 | Transcription factor MafB (Mus musculus), P54841 V277N | disrupting interaction strength
